# Source: FireProtDB (doi:10.1110/ps.0205902)
# B1: Guanyl-specific ribonuclease T1 wild type, P00651 (protein)
# chain: MMYSKLLTLTTLLLPTALALPSLVERACDYTCGSNCYSSSDVSTAQAAGYQLHEDGETVGSNSYPHKYNNYEGFDFSVSSPYYEWPILSSGDVYSGGSPGADRVVFNENNQLAGVITHTGASGNNFVECT
# Conditions: Aspergillus oryzae (strain ATCC 42149 / RIB 40), pH 3, 25 °C, Urea, CD, Glycine-HCl 3 mM, reversible: yes, whole UniProt chain shown
protein,measurement,setting,value
B1,denaturant m value,Na2SO4 0.01 M,1.67 kcal/mol/M
same,denaturant midpoint (higher = more stable),Na2SO4 0.01 M,2.55 M
same,unfolding free energy,Na2SO4 0.01 M,4.2 kcal/mol
same,denaturant m value,Na2SO4 0.20 M,1.52 kcal/mol/M
same,denaturant midpoint (higher = more stable),Na2SO4 0.20 M,4.21 M
same,unfolding free energy,Na2SO4 0.20 M,6.38 kcal/mol
same,denaturant m value,Na2SO4 0.50 M,1.5 kcal/mol/M
same,denaturant midpoint (higher = more stable),Na2SO4 0.50 M,5.28 M
same,unfolding free energy,Na2SO4 0.50 M,7.91 kcal/mol
same,denaturant m value,Na2SO4 0.80 M,1.47 kcal/mol/M
same,denaturant midpoint (higher = more stable),Na2SO4 0.80 M,5.81 M
same,unfolding free energy,Na2SO4 0.80 M,8.56 kcal/mol
same,denaturant m value,NaCl 0.01 M,2.29 kcal/mol/M
same,denaturant midpoint (higher = more stable),NaCl 0.01 M,1.43 M
same,unfolding free energy,NaCl 0.01 M,3.26 kcal/mol
same,denaturant m value,NaCl 0.25 M,1.85 kcal/mol/M
same,denaturant midpoint (higher = more stable),NaCl 0.25 M,2 M
same,unfolding free energy,NaCl 0.25 M,3.69 kcal/mol
same,denaturant m value,NaCl 0.50 M,1.8 kcal/mol/M
same,denaturant midpoint (higher = more stable),NaCl 0.50 M,2.49 M
same,unfolding free energy,NaCl 0.50 M,4.48 kcal/mol
same,denaturant m value,NaCl 0.75 M,1.75 kcal/mol/M
same,denaturant midpoint (higher = more stable),NaCl 0.75 M,2.91 M
same,unfolding free energy,NaCl 0.75 M,5.07 kcal/mol
same,denaturant m value,NaCl 1.00 M,1.64 kcal/mol/M
same,denaturant midpoint (higher = more stable),NaCl 1.00 M,3.21 M
same,unfolding free energy,NaCl 1.00 M,5.28 kcal/mol
same,denaturant m value,NaSCN 0.01 M,2.21 kcal/mol/M
same,denaturant midpoint (higher = more stable),NaSCN 0.01 M,1.44 M
same,unfolding free energy,NaSCN 0.01 M,3.05 kcal/mol
same,denaturant m value,NaSCN 0.05 M,1.87 kcal/mol/M
same,denaturant midpoint (higher = more stable),NaSCN 0.05 M,1.55 M
same,unfolding free energy,NaSCN 0.05 M,2.91 kcal/mol
same,denaturant m value,NaSCN 0.25 M,1.23 kcal/mol/M
same,denaturant midpoint (higher = more stable),NaSCN 0.25 M,1.5 M
same,unfolding free energy,NaSCN 0.25 M,1.85 kcal/mol
same,denaturant m value,NaSCN 0.50 M,1.03 kcal/mol/M
same,denaturant midpoint (higher = more stable),NaSCN 0.50 M,1.38 M
same,unfolding free energy,NaSCN 0.50 M,1.43 kcal/mol
same,denaturant m value,NaSCN 0.75 M,1.1 kcal/mol/M
same,denaturant midpoint (higher = more stable),NaSCN 0.75 M,1.04 M
same,unfolding free energy,NaSCN 0.75 M,1.14 kcal/mol
same,denaturant m value,,2.24 kcal/mol/M
same,denaturant midpoint (higher = more stable),,1.48 M
same,unfolding free energy,,3.28 kcal/mol
